Source: PMC9932110, “RanBP9 controls the oligomeric state of CTLH complex assemblies” (The Journal of Biological Chemistry, 2023)
Several values for one entry are separate records, joined by “and”; a condition that tells them apart may be missing. Identical values can stand only once.

B1: muskelin (natural protein, rat, UniProt Q99PV3 1-735, looked up)
chain: MAAGGAVAAAPECRLLPYALHKWSSFSSTYLPENILVDKPNDQSSRWSSESNYPPQYLILKLERPAIVQNITFGKYEKTHVCNLKKFKVFGGMNEENMTELLSSGLKNDYNKETFTLKHKIDEQMFPCRFIKIVPLLSWGPSFNFSIWYVELSGIDDPDIVQPCLNWYSKYREQEAIRLCLKHFRQHNYTEAFESLQKKTKIALEHPMLTDMHDKLVLKGDFDACEELIEKAVNDGLFNQYISQQEYKPRWSQIIPKSTKGDGEDNRPGMRGGHQMVIDVQTETVYLFGGWDGTQDLADFWAYSVKENQWTCISRDTEKENGPSARSCHKMCIDIQRRQIYTLGRYLDSSVRNSKSLKSDFYRYDIDTNTWMLLSEDTAADGGPKLVFDHQMCMDSEKHMIYTFGGRILTCNGSVDDSRASEPQFSGLFAFNCQCQTWKLLREDSCNAGPEDIQSRIGHCMLFHSKNRCLYVFGGQRSKTYLNDFFSYDVDSDHVDIISDGTKKDSGMVPMTGFTQRATIDPELNEIHVLSGLSKDKEKREENVRNSFWIYDIVRNSWSCVYKNDQAAKENLSKSLQEEEPCPRFAHQLVYDELHKVHYLFGGNPGKSCSPKMRLDDFWSLKLCRPSKDYLLRHCKYLIRKHRFEEKAQMDPLSALKYLQNDLYITVDHSDPEETKEFQLLASALFKSGSDFTALGFSDVDHTYAQRTQLFDTLVNFFPDSMTPPKGNLVDLITL
notes: muskelin, rat, 735 residues
B2: Wdr26 (natural protein)
chain: QSDEDVIRLIGQHLNGLGLNQTVDLLMQESGCRLEHPSATKFRNHVMEGDWDKAENDLNELKPLVHSPHAIVRMKFLLLQQKYLEYLEDGKVLEALQVLRCELTPLKYNTERIHVLSGYLMCSHAEDLRAKAEWEGKGTASRSKLLDKLQTYLPPSVMLPPRRLQTLLRQAVELQRDRCLYHNTKLDNNLDSVSLLIDHVCSRRQFPCYTQQILTEHCNEVWFCKFSNDGTKLATGSKDTTVIIWQVDPDTHLLKLLKTLEGHAYGVSYIAWSPDDSYLVACGPDDCSELWLWNVQTGELRTKMSQSHEDSLTSVAWNPDGKRFVTGGQRGQFYQCDLDGNLLDSWEGVRVQCLWCLSDGKTVLASDTHQRVRGYNFEDLTDRNIVQEDHPIMSFTISKNGRLALLNVATQGVHLWDLQDRVLVRKYQGVTQGFYTIHSCFGGHNEDFIASGSEDHKVYIWHKRSELPIAELTGHTRTVNCVSWNPQIPSMMASASDDGTVRIWGPAPFIDHQNIEEECSSMDS
modifications: Supplement: residues 1-101 deleted. Paper gives 625 residues, matching E0CYH4 (CTLH 136-195) rather than the 641-aa Q8C6G8 canonical form (CTLH 136-211). Forms a concentration-dependent oligomer …

What was measured:
[1] = molecular target: the molecule itself; assay: SEC-MALS; Superose 6 10/300 GL, SEC buffer; molar mass of single proteins and of complexes assembled from purified proteins
[2] = molecular target: T1, Wdr26 (mouse, UniProt Q8C6G8 1-641); assay: SEC-MALS; Wdr26 alone, dilution series from four batches, Superose 6 10/300 GL; molar mass at the peak against peak concentration, one-site model; dimer to higher oligomers; saturation not reached; conditions: both partners purified
T1 chain: B2 chain

[3] = molecular target: T1, Wdr26; assay: SEC-MALS; Superose 6 10/300 GL, SEC buffer; molar mass of single proteins and of complexes assembled from purified proteins; conditions: both partners purified

Binder	stoichiometry N [1]	Kd [2] [µM]	stoichiometry N [2]	stoichiometry N [3]
B1	4			
B2		10	≥ 8 and 12	2
